In patent publication US20020159972A1 (PENN STATE RESEARCH FOUNDATION, published 2002):

Biological target: T1, restricted (IL4 independent) hIL13 receptor (human, UniProt Q14627 27-380)
T1 construct: whole, on cells; also called restricted receptor; restrictive receptor
T1 sequence (looked up): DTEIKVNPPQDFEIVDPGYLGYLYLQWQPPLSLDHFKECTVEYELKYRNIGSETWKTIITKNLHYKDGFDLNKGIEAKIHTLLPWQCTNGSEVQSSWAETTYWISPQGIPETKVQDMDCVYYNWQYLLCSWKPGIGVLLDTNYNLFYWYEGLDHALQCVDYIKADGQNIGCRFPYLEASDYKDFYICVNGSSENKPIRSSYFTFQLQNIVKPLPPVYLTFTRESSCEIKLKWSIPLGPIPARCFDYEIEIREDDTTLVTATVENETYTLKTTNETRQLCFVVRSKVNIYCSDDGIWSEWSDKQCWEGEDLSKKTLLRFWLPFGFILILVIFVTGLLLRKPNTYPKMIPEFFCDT
Experiment: autoradiography competition on GBM tissue sections against ^125I-hIL13.E13Y
Protocol: Serial tissue sections were cut (10 mm) on a cryostat, thaw-mounchrome alumme-alum coated slides, and stored at 4° C. until analyzed. […] To dissociate non-specifically bound radioligand, sections were rinsed in four consecutive changes (5 minutes each) of ice-cold 0.1 M PBS. […] After drying, labeled sections were apposed to Kodak autoradiography film at −65° C. for 8 hr to 11 days.

B1: recombinant hIL4 (human interleukin 4) (ligand, UniProt P05112 25-153, looked up)
chain: HKCDITLQEIIKTLNSLTEQKTLCTELTVTDIFAASKNTTEKETFCRAATVLRQFYSHHEKDTRCLGATAQQFHRHKQLIRFLKRLDRNLWGLAGLNSCPVKEANQSTLENFLERLKTIMREKYSKCSS
B1: no binding (tested: 100- to 500-fold molar excess).
